B1: IgSF (IgI3) domain of β protein, recombinant, biotinylated [modified: biotin, C-terminal] [Streptococcus agalactiae (GBS)] / recombinant CEACAM1 N-terminal domain, unglycosylated, 6xHis tagged [human] (parent)
chain 1: MAQLTTESMPFNVAEGKEVLLLVHNLPQQLFGYSWYKGERVDGNRQIVGYAIGTQQATPGPANSGRETIYPNASLLIQNVTQNDTGFYTLQVIKSDLVNEEATGQFHVY
chain 2: ANENNQQKIELTVSPENITVYEGEDVKFTVTAKSDSKTTLDFSDLLTKYNPSVSDRISTNYKTNTDNHKIAEITIKNLKLNESQTVTLKAKDDSGNVVEKTFTITVQKKEEKQLPSTGGS

The experiment covers variants of B1. Nature of the experiment: flow cytometry on coated dynabeads. As to conditions: with recombinant CEACAM1 N-terminal domain, parent: 390, read off a plot. (A flow cytometer gives signals particle by particle.)
In the case of chain 2 S52A, the response (Geometric MFI) was 320.

Consider chain 2 L45A, for which the response (Geometric MFI) is 350.

These data come from article PMC8013792, “Bacterial protein domains with a novel Ig‐like fold target human CEACAM receptors” (The EMBO Journal, 2021).
